{
  "source": "patent US20240181084",
  "test_system": "TALEN-integrase (HIV IN deltaC) fusion pair targeting eGFP, 16 bp spacer",
  "assay": "cell_activity",
  "conditions": "chloramphenicol-resistant colonies vs untargeted integrase; COS-7 plasmid integration assay",
  "data": [
    {"substance": "eGFP TALEN pair target, 16 bp spacer", "values": [
      {"measurement": "activity", "value": 6, "unit": "fold"}
    ]}
  ]
}
